Assay results from article PMC8124314.
Read-outs that look alike come from different tables or passages of the source.

Experiments:
[1] = molecular target: E-cadherin (Homo sapiens) (UniProt P12830); conditions: cited from earlier work
[2] = molecular target: MBP-fused epithelial cadherin (MBP-eCAD); experiment: SPR
[3] = molecular target: MBP-fused epithelial cadherin (MBP-eCAD); experiment: SPR; remark: listed apart in the source

| Kd [2] | Kd [3] | koff [3] | kon [3] | Substance | Kd [1] |
| --- | --- | --- | --- | --- | --- |
|  |  |  |  | E-cadherin (from UniProt P12830) | 100 µM |
| 197 µM | 0.197 µM | 0.000696 s⁻¹ | 4650 M⁻¹ s⁻¹ | MBP-fused epithelial cadherin (MBP-eCAD) (domain or fragment) |  |
